85 variants from article PMC13397619 can be followed below.

To fix the notation:
B1: NLV3 TCR beta chain (CDR3β only) (parent)
chain: ASSPTGGSPSPLH
partner: NLCPMVATV

The variants in one assay derive from B1. Nature of the assay: T-Switch: Jurkat TCRβ−/− cells expressing a CDR3 saturation-mutagenesis library, stained with two peptide-HLA-A*02:01 tetramers (original and novel peptide) plus anti-CD3, FACS-sorted into four gates, gDNA sequenced. As to conditions: with HLA-A*02:01 with peptide … (NLV 2-1, the novel peptide), tetramers 1 µg/mL, 30 min on ice, SP, DP and SW gates expanded about 10 days between rounds ('two to three rounds of selection' in the Methods), gate SW: higher = more of the variant in the gate that binds the novel peptide and not the original one = switched binding. Fold enrichment of the CDR3 variant in one FACS gate of a two-tetramer stain, unresolved parent, parent is a CDR3 fragment, scale: fold enrichment, numbering: sequential-on-construct, sequence starts at 1.
[…] (CDR3 as printed); S8E derived by comparing it with the table's wild-type CDR3 ASSPTGGSPSPLH: the enrichment stood at 0.

For […] (CDR3 as printed); G7M derived by comparing it with the table's wild-type CDR3 ASSPTGGSPSPLH, the enrichment came out at 0. The same measure, in the same setting: then […] (CDR3 as printed); A1Q derived by comparing it with the table's wild-type CDR3 ASSPTGGSPSPLH, with 0. Take […] (CDR3 as printed); H13S derived by comparing it with the table's wild-type CDR3 ASSPTGGSPSPLH: the enrichment was determined as 0. Same read-out and setting: then […] (CDR3 as printed); S8G derived by comparing it with the table's wild-type CDR3 ASSPTGGSPSPLH, with 0. Same read-out and setting: then […] (CDR3 as printed); S10Q derived by comparing it with the table's wild-type CDR3 ASSPTGGSPSPLH, with 0; and […] (CDR3 as printed); S10G derived by comparing it with the table's wild-type CDR3 ASSPTGGSPSPLH, with 0; and […] (CDR3 as printed); A1S derived by comparing it with the table's wild-type CDR3 ASSPTGGSPSPLH, with 0. Consider […] (CDR3 as printed); G7V derived by comparing it with the table's wild-type CDR3 ASSPTGGSPSPLH, for which the enrichment came to 0. Same read-out and setting: then […] (CDR3 as printed); H13Q derived by comparing it with the table's wild-type CDR3 ASSPTGGSPSPLH, with 0. Still for that read-out and setting: then […] (CDR3 as printed); S10A derived by comparing it with the table's wild-type CDR3 ASSPTGGSPSPLH, with 0; and […] (CDR3 as printed); S8V derived by comparing it with the table's wild-type CDR3 ASSPTGGSPSPLH, with 0.

As to […] (CDR3 as printed); S3W derived by comparing it with the table's wild-type CDR3 ASSPTGGSPSPLH, the enrichment was 0. Regarding […] (CDR3 as printed); P9E derived by comparing it with the table's wild-type CDR3 ASSPTGGSPSPLH, the enrichment was 0. Same read-out and setting: the same measure for […] (CDR3 as printed); S3T derived by comparing it with the table's wild-type CDR3 ASSPTGGSPSPLH: 0; for […] (CDR3 as printed); H13V derived by comparing it with the table's wild-type CDR3 ASSPTGGSPSPLH: 0; for […] (CDR3 as printed); G7Y derived by comparing it with the table's wild-type CDR3 ASSPTGGSPSPLH: 0. The same measure, in the same setting: the same measure for […] (CDR3 as printed); S8A derived by comparing it with the table's wild-type CDR3 ASSPTGGSPSPLH: 0. Turning to […] (CDR3 as printed); S3M derived by comparing it with the table's wild-type CDR3 ASSPTGGSPSPLH, the enrichment came to 0.

On to […] (CDR3 as printed); L12A derived by comparing it with the table's wild-type CDR3 ASSPTGGSPSPLH, for which the enrichment was 0. On the same count and under the same terms, the same measure for […] (CDR3 as printed); G6F derived by comparing it with the table's wild-type CDR3 ASSPTGGSPSPLH: 0; for […] (CDR3 as printed); P11C derived by comparing it with the table's wild-type CDR3 ASSPTGGSPSPLH: 0. As to […] (CDR3 as printed); S8T derived by comparing it with the table's wild-type CDR3 ASSPTGGSPSPLH, the enrichment was found to be 0. Turning to […] (CDR3 as printed); H13E derived by comparing it with the table's wild-type CDR3 ASSPTGGSPSPLH, the enrichment stood at 0. On the same count and under the same terms, then […] (CDR3 as printed); P9H derived by comparing it with the table's wild-type CDR3 ASSPTGGSPSPLH, with 0. Same read-out and setting: then […] (CDR3 as printed); T5S derived by comparing it with the table's wild-type CDR3 ASSPTGGSPSPLH, with 0; and […] (CDR3 as printed); G6C derived by comparing it with the table's wild-type CDR3 ASSPTGGSPSPLH, with 0. On the same count and under the same terms, then […] (CDR3 as printed); G6V derived by comparing it with the table's wild-type CDR3 ASSPTGGSPSPLH, with 0. In the case of […] (CDR3 as printed); P9S derived by comparing it with the table's wild-type CDR3 ASSPTGGSPSPLH, the enrichment was 0. The same measure, in the same setting: the same measure for […] (CDR3 as printed); S2C derived by comparing it with the table's wild-type CDR3 ASSPTGGSPSPLH: 0; for […] (CDR3 as printed); P11D derived by comparing it with the table's wild-type CDR3 ASSPTGGSPSPLH: 0. In the case of […] (CDR3 as printed); S8P derived by comparing it with the table's wild-type CDR3 ASSPTGGSPSPLH, the enrichment stood at 0. On the same count and under the same terms, the same measure for […] (CDR3 as printed); S2V derived by comparing it with the table's wild-type CDR3 ASSPTGGSPSPLH: 0; for […] (CDR3 as printed); P11R derived by comparing it with the table's wild-type CDR3 ASSPTGGSPSPLH: 0. As for […] (CDR3 as printed); P11V derived by comparing it with the table's wild-type CDR3 ASSPTGGSPSPLH, the enrichment stood at 0. Same read-out and setting: the same measure for […] (CDR3 as printed); T5N derived by comparing it with the table's wild-type CDR3 ASSPTGGSPSPLH: 0; for […] (CDR3 as printed); S3Y derived by comparing it with the table's wild-type CDR3 ASSPTGGSPSPLH: 0; for […] (CDR3 as printed); H13N derived by comparing it with the table's wild-type CDR3 ASSPTGGSPSPLH: 0.

Turning to […] (CDR3 as printed); S10K derived by comparing it with the table's wild-type CDR3 ASSPTGGSPSPLH, the enrichment turned out to be 0.

Turning to […] (CDR3 as printed); S2M derived by comparing it with the table's wild-type CDR3 ASSPTGGSPSPLH, the enrichment amounted to 0. On the same count and under the same terms, the same measure for […] (CDR3 as printed); S3E derived by comparing it with the table's wild-type CDR3 ASSPTGGSPSPLH: 0. Still for that read-out and setting: the same measure for […] (CDR3 as printed); S2G derived by comparing it with the table's wild-type CDR3 ASSPTGGSPSPLH: 0; for […] (CDR3 as printed); S3N derived by comparing it with the table's wild-type CDR3 ASSPTGGSPSPLH: 0; for […] (CDR3 as printed); S3V derived by comparing it with the table's wild-type CDR3 ASSPTGGSPSPLH: 0. Take […] (CDR3 as printed); G7K derived by comparing it with the table's wild-type CDR3 ASSPTGGSPSPLH: the enrichment is 0.

[…] (CDR3 as printed); P9F derived by comparing it with the table's wild-type CDR3 ASSPTGGSPSPLH: the enrichment was found to be 0. […] (CDR3 as printed); T5E derived by comparing it with the table's wild-type CDR3 ASSPTGGSPSPLH: the enrichment turned out to be 0. The same measure, in the same setting: then […] (CDR3 as printed); A1E derived by comparing it with the table's wild-type CDR3 ASSPTGGSPSPLH, with 0; and […] (CDR3 as printed); P11W derived by comparing it with the table's wild-type CDR3 ASSPTGGSPSPLH, with 0. Same read-out and setting: the same measure for […] (CDR3 as printed); G6Q derived by comparing it with the table's wild-type CDR3 ASSPTGGSPSPLH: 0; for […] (CDR3 as printed); L12C derived by comparing it with the table's wild-type CDR3 ASSPTGGSPSPLH: 0.

Turning to […] (CDR3 as printed); T5F derived by comparing it with the table's wild-type CDR3 ASSPTGGSPSPLH, the enrichment was determined as 0. Still for that read-out and setting: then […] (CDR3 as printed); P4K derived by comparing it with the table's wild-type CDR3 ASSPTGGSPSPLH, with 0; and […] (CDR3 as printed); P9W derived by comparing it with the table's wild-type CDR3 ASSPTGGSPSPLH, with 0; and […] (CDR3 as printed); T5G derived by comparing it with the table's wild-type CDR3 ASSPTGGSPSPLH, with 0. The same measure, in the same setting: the same measure for […] (CDR3 as printed); G6W derived by comparing it with the table's wild-type CDR3 ASSPTGGSPSPLH: 0. Still for that read-out and setting: the same measure for […] (CDR3 as printed); P11A derived by comparing it with the table's wild-type CDR3 ASSPTGGSPSPLH: 0; for […] (CDR3 as printed); H13P derived by comparing it with the table's wild-type CDR3 ASSPTGGSPSPLH: 0; for […] (CDR3 as printed); S10H derived by comparing it with the table's wild-type CDR3 ASSPTGGSPSPLH: 0. For […] (CDR3 as printed); S10E derived by comparing it with the table's wild-type CDR3 ASSPTGGSPSPLH, the enrichment came to 0. On the same count and under the same terms, then […] (CDR3 as printed); G6D derived by comparing it with the table's wild-type CDR3 ASSPTGGSPSPLH, with 0; and […] (CDR3 as printed); P4Y derived by comparing it with the table's wild-type CDR3 ASSPTGGSPSPLH, with 0. Turning to […] (CDR3 as printed); G6H derived by comparing it with the table's wild-type CDR3 ASSPTGGSPSPLH, the enrichment was 0.

For the variant […] (CDR3 as printed); P9Q derived by comparing it with the table's wild-type CDR3 ASSPTGGSPSPLH, the enrichment turned out to be 0. Same read-out and setting: the same measure for […] (CDR3 as printed); S8Q derived by comparing it with the table's wild-type CDR3 ASSPTGGSPSPLH: 0. Same read-out and setting: the same measure for […] (CDR3 as printed); H13I derived by comparing it with the table's wild-type CDR3 ASSPTGGSPSPLH: 0; for […] (CDR3 as printed); P4M derived by comparing it with the table's wild-type CDR3 ASSPTGGSPSPLH: 0. For the variant […] (CDR3 as printed); P11E derived by comparing it with the table's wild-type CDR3 ASSPTGGSPSPLH, the enrichment is 0. On the same count and under the same terms, the same measure for […] (CDR3 as printed); S3I derived by comparing it with the table's wild-type CDR3 ASSPTGGSPSPLH: 0. Still for that read-out and setting: then […] (CDR3 as printed); P4L derived by comparing it with the table's wild-type CDR3 ASSPTGGSPSPLH, with 0; and […] (CDR3 as printed); T5Q derived by comparing it with the table's wild-type CDR3 ASSPTGGSPSPLH, with 0. The same measure, in the same setting: then […] (CDR3 as printed); S2H derived by comparing it with the table's wild-type CDR3 ASSPTGGSPSPLH, with 0; and […] (CDR3 as printed); G7W derived by comparing it with the table's wild-type CDR3 ASSPTGGSPSPLH, with 0; and […] (CDR3 as printed); L12H derived by comparing it with the table's wild-type CDR3 ASSPTGGSPSPLH, with 0.

With […] (CDR3 as printed); S3L derived by comparing it with the table's wild-type CDR3 ASSPTGGSPSPLH, the enrichment was determined as 0.

For the variant […] (CDR3 as printed); S10N derived by comparing it with the table's wild-type CDR3 ASSPTGGSPSPLH, the enrichment was determined as 0.

With […] (CDR3 as printed); T5H derived by comparing it with the table's wild-type CDR3 ASSPTGGSPSPLH, the enrichment was found to be 0. On to […] (CDR3 as printed); T5Y derived by comparing it with the table's wild-type CDR3 ASSPTGGSPSPLH, for which the enrichment worked out at 0. Still for that read-out and setting: then […] (CDR3 as printed); S2P derived by comparing it with the table's wild-type CDR3 ASSPTGGSPSPLH, with 0. On the same count and under the same terms, then […] (CDR3 as printed); L12M derived by comparing it with the table's wild-type CDR3 ASSPTGGSPSPLH, with 0; and […] (CDR3 as printed); L12N derived by comparing it with the table's wild-type CDR3 ASSPTGGSPSPLH, with 0; and […] (CDR3 as printed); G6L derived by comparing it with the table's wild-type CDR3 ASSPTGGSPSPLH, with 0.

[…] (CDR3 as printed); S3C derived by comparing it with the table's wild-type CDR3 ASSPTGGSPSPLH: the enrichment worked out at 0.

On to […] (CDR3 as printed); S8N derived by comparing it with the table's wild-type CDR3 ASSPTGGSPSPLH, for which the enrichment amounted to 0.

The assay is the same for the next values; noted with them: with HLA-A*02:01 with peptide … (NLV 2-1, the novel peptide), tetramers 1 µg/mL, 30 min on ice, SP, DP and SW gates expanded about 10 days between rounds ('two to three rounds of selection' in the Methods), gate SW: higher = more of the variant in the gate that binds the novel peptide and not the original one = switched binding. Fold enrichment of the CDR3 variant in one FACS gate of a two-tetramer stain, unresolved parent, parent is a CDR3 fragment, zero in all gates, scale: fold enrichment, numbering: sequential-on-construct, ….
[…] (CDR3 as printed); G7P derived by comparing it with the table's wild-type CDR3 ASSPTGGSPSPLH: the enrichment was found to be 0.
